Results on 41 sequences are retold here after the nanobody polyreactivity screen of Harvey et al. (2022).

A short description of the data set: yeast display, Sf9 membrane polyspecificity reagent, FACS + sequencing; frameworks hold sequencing errors. An outline of the steps:
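Using colony PCR, genes from sorted yeast display clones were amplified, then sequenced on MiSeq at 2 × 250 and filtered by CDR length. The clones had been stained with 10% biotinylated, detergent-solubilized Sf9 membrane reagent for 1 hour at 4 °C and sorted by FACS into low and high (top ~1%) gates on anti-HA and streptavidin fluorescence. Polyreactivity labels come from the gate of origin.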
Take “QVQLVESGGGLVQAGGSLRLSCAASGSIFDYKAMGWYRQAPGKERELFADITISDDSTYYADSVKGRFTISRDNAKNTVYLQMNSLKPEDTAVYYCAADIKYYWYYYYWAYAYDYWGHGTQVTVSS”: the “polyreactivity (PSR sort gate)” value is “high polyreactivity”.
Then “QVQLVESGGGLVQAGGSLRLSCAASGRTFIAYGMGWYRQAPGKERELVAAISRNGASTYYADSVKGRFTISRDNAKNTVYLQMNSLKPEDNAVYYCAAGYIRSRGGRWTHSGYWGQGTQVTVSS”, with “high polyreactivity”.
Then “QVQLVESGGGLVQAGGSLRLSCAASGRIFAQYAMGWYRQAPGKERELVAAISRSGGTTYYADSVKGRFTISRDNAKNTVYLQMNSLKPDDTAVYYCAASLRYLYYYWGQGTQVTVSS”, with “high polyreactivity”; and “QVQLVESGGGLVQAGGSLRLSCAASGSILSFNAMGWDRQAPGNERELVAAISRGGSTNYADSVKGRFTISRDNAKNTVYLQMNSLKPEDTAVYYCAAVQYRYSTRWARRAYDYWGQGTQVTVSS”, with “high polyreactivity”.
Then “QVQLVESGGGLVQAGGSLRLSCAASGITFADYAMGRYRQAPGKERELVAAISSGTSTYYADSVKGRFTISPDNAKNTVYLQMNSLKPEDTAVYYFYARYWGRVPPPAYDPRRYWGQGTQVTVSS”, with “high polyreactivity”; and “QVQLVESGGGLVQAGGSLRVSCAASGFIFPGNAMGWYRQAPGKERELVAAISNSGSRTYYADSVKGRFTISRDNAKNTVYLQMNSLKPEDTAVYYCNADVHNRGWPYDYWGQGTQVTVSS”, with “low polyreactivity”; and “QVQLVESGGGLVQAGGSLRLSCAASGSTFVKYAMGWYRQAPGKERELVAAINRSGASTYYADSVKGRFTISRDNAKNTVYLQMNSLKPEDTAVYYCAARFSWVGYYWGQGTQVTVSS”, with “high polyreactivity”.
Consider “QVQLVESGGGLVQAGGSLRLSCAASGRIFRWYAMGWYRQAPGKERELVATISSTGGSTYYADSVKGRFTLSRDNAKNTVYLQMNSLKPEDTAVYYCNAVVYGIFLYAWYDYWGQGTQVTVSS”, for which the “polyreactivity (PSR sort gate)” value was “low polyreactivity”.
Then “QVQHVESGGGLVQAGGSLRLSCDASGITFGHYTMGWYRQAHGKEREFVAAISWSGGSTYYADSVKGRFTISRDNAKNTVYLQMNSLKPEYTAVYYCNRVKPVIASYDSDYWGQGTQVTVSS”, with “low polyreactivity”; and “QVQLVESGGGLVQAGGSLRLSCDASAYIFVYNVMGWYRQAHGKERELVAAITSGGSTNYADSVKGRFTISRDNAKNTVYLQMNSLKPEDTAVYYCNAQFDLTFRGTGDYWGQGTQVTVSS”, with “low polyreactivity”.
Then “QVQLVESGGVLVQAGGSLRLSCAASGFIFAKYAMGWYRQAPGKERELVAAINGRGTSTYYADSVKGRFTISRDNAKNTVYLQMNSLKPEDTAVYYCAARLRSGYHGQYDREDYWGQGTQVTVSS”, with “high polyreactivity”.
The value for “QVQLVESGGGLVQAGGSLRLSCAASGSIFTVYAMGWSRQAPGKERELVAAITSGGSTNYADSVKGRFTISRDNAKNTVYLQMNSLKPEDTAVYDCNAVWRYGSARYGYWGQGTQVTVSS” was “low polyreactivity”; that for “QVQLVESGGGLVQAGGSLRLSCAASGRTFPPYGMGWYRQAPGKERELVAAISKSSGSTNYADSVKGRFTISRDNAKNTVYLQMNSLKPEDTAVYYCNVDLYRWSKLAGAYRMDYWGQGTQVTVSS” was “low polyreactivity”.
With “QVQLVESGGGLVQAGGSLSLSCAASGSTLRYYDMGWYRQAPGKERELVAAISRGGSTYYADSVKGRFTISRDNAKNTVYLQMNSLKPEDTAVYYCNKEYPSSYEYDYWGQGTQVTVSS”, the “polyreactivity (PSR sort gate)” value is “low polyreactivity”.
The value for “QVQLVESGGGLVQAGGSLRLSCAASGSIFHSYAMGWYRQAPGKETELVASITASGDSTYYADSVKGRFTISRDNAKNTVYLQMNSLKPEDTAVYYCNTQAVYGGGEGGYDYWGQCTQVTVSS” was “low polyreactivity”; that for “QVQLVESGGGLVQAGGSLRLSCAASGFTFYINALGWYRLAHGKERELVAAITWRSVRTYYADSVKGRFTISRDNAKNTVYLQMNSRKPEDTEVYYCAAASAYRHGEYDYWGQGTQLTVSS” was “low polyreactivity”.
Then “QVQLVESGGGLVQAGGSLRLSCAASGSTFFLYVRGWYRQAPGKERELVAAITSGGRTYYADSVKGRFTISRDNAKNTVYLQMNSLKPEDTAVYNCAADVRRVRVGKYDYWGQGTQVTVSS”, with “high polyreactivity”; and “QVQLVESGGGLVQAGGTLRLICAASGSTLYWNAMGLYRQAPGKQRELVAGISIGGRTNYADSVKGRFTISRDNAKNTVYLQMISLKPEDTAVYYCNAENTYLGSRYRPYNYWGQGTQVTVSS”, with “low polyreactivity”; and “QVQLVESGGGLVQAGGSLRLSCAASGGMGWYRQAPGKERELVATISSVGSTNYADSVKGRFTISRDNAKNTVYLQMNSLKPEDTAVYYCNANGVQYFLYGYWGQGTQVTVSS”, with “low polyreactivity”.
The value for “QVQLVESGGGLVQSGGSLRLSCAASGFTFASYAMGWYRQAPGKERELVAAIDSDDSTNYADSVKGRFTISRDNAKNTVYLQMNSLKPEDTAVYYCAADEGPYYGIYEYYYWGQGTQVTVSS” was “high polyreactivity”.
As for “QVQLVESGGGLVQAGGSLRLSCAASGVIFGRYAMGWYREAPGKERELVAAISWGGGSTRYADSVKGRFTISRDNAKNTVYLQMNSLKPEDTAVYYCAAYRYWGRTSYSYDYWGQGTQVTVSS”, the “polyreactivity (PSR sort gate)” value was “high polyreactivity”.
Then “HVQLVESGGGLVQAGGSLRLTCAASGLTFSSYAMGWYRQAPGKERELVADITYRGGSTYYADSVKGRFTISRDNEKNTVYLQMNSLKPEDTAVYYCAARKKYRFDYWGQGTQVTVSS”, with “high polyreactivity”.
Then “QVQLVESGGGLVQAGGSLRLICAASGSTSPTNAMGWYRQAPGKEREFVAAIRGSGSSTRYADSVKGRFTISRDNAKNTVYLQMNSLKPEDTAVYYFDYWGQGTQVTVSS”, with “low polyreactivity”; and “QVQLVESGGGLVQAGGSLRLSCAASGFTFGRYAMGWYRPAPGKERELVAAISRSGGRTYYADTVKGRFTISRDNAKNTVYLQMNSLKPEHTAVYYCAAYGGVEDDYWGQGTQVTVSS”, with “low polyreactivity”.
For “QVQLVESGGGLVQAGGSLRLSCAASGYTFNRNAMGWYRQAPGKERELVASITRRGGYTYYADSVKGRFTISRDNAKNTDYLQMISLKPEDTAVYYCAVESIRTGDYWGQGTQVTVSS”, the “polyreactivity (PSR sort gate)” value is reported as “high polyreactivity”.
With “QIQLVESCGGLVQAGGSLRLICDDSGITFTIYAMGGYRQAHGKERELVAAIDSGGGTNYADSVKGRFTISRDNAKNTVYLQMNSLKPEDTAFYYCAAYWYAEGYWVSRDYWGQGTQVTVSS”, the “polyreactivity (PSR sort gate)” value is on record as “low polyreactivity”.
Then “QVQLVESGGGLVQAGGSLRLSCAASGFIFHLNAMGWYRQAPGKERELVAAIRSSGGSTYYADSVKGRFTISRDIAKNTVYFQMISMKREDTAVYYCAARGSSGLTRRGYYWGQGTQVNVSS”, with “high polyreactivity”.
Then “QVQLVESGGGLVQAGGSLRLSCAASGSIFDLYAMGWYRQAPGKERELVAGISYSGGSTYYADSVKGRFTISRDNAKNTVYLQMNSLKPEDTAVYHCADDGGWRYHPFSSLFDYWGQGTQVTVSS”, with “low polyreactivity”.
The value for “QVQLVESGGGLVQAGGSLRLSCAASGFTFVYYAMGWYRQAPGKEREFAYYADSVKGRFTISRDNAKNTVYLQMNSLKPEDTAVYYCNAAEDEGDRPITQVGYDYWGQGTQVTVSS” was “low polyreactivity”; that for “QVQLVESGGGLVQAGGSLRLSCAASGSTFSRNAMGWYRQAPGKERELVAAITLRGTNTYYADSVKGRFTISRDNAKNTVYLQMNSLKPEDTAVYYCAALRRGSGRYDMDYWGQGTQVTVSS” was “high polyreactivity”.
Consider “QVQLVESGGGLVQAGGSLRLSCAASGRTLSYYAMGWYRQAPGKEREFVAAINWSGGSTYYADSVKGRFTISRDNAKNTVYLQMNSLKPEDTAVYYCAAYRPYSSSEGDYWGQGTQVTVSS”, for which the “polyreactivity (PSR sort gate)” value is reported as “high polyreactivity”.
For “QVQLVESGGGLVQAGGSLSLSCAASARIFYGYAMGWYRQEPGKEREFVAAITSGGRTYYADSVKGRFTISRDNAKNTVYLQMNSLKPEDTAVYYCAAAQYYRYGYWGQGTQVTVSS”, the “polyreactivity (PSR sort gate)” value was “high polyreactivity”.
Then “QVQLVESGGGLVQAGGSLRLICAASGLTYVSYAMGWYRQAPGKERELVAGITSGGGTTDYADSVKGRFTISRDNAKTTVYLQMNSLTPEDTAVYDCNARSVYDGFWYNYWGQGTQVTVSS”, with “high polyreactivity”; and “QVQLVESGGGLVQAGGSLRLSCAASGITFTYYVMGWYRQAPGKERELVAAISSGGRTYYADSVKGRFTISRDNAKNTVYLEMNSLKPEDTAVYYCNADQYLRYFGRYYRSGEYWGQGTQVTVSS”, with “high polyreactivity”; and “QVQLVESGGGLVQAGGSLRLSCAASGSTFGRYAMGWYRQAPGKERELVAAISPRGGSTYYADSVKGRFTISRDNAKNTVYLQMNSLKPEDTAVYYCATGYPIDLGREFDYWGQGIQVTVSS”, with “high polyreactivity”.
The value for “QVQLVESGGGLVQAGGSLRLSCAASGRTFAFNAMGWYRPAPGKERELVAAIRWSGGCTYYADSVKGRFTISRDSPKNTVSLQMNTLKPEDTAVYYCAAYEKRLGYDYWGQGTQVTVSS” was “high polyreactivity”; that for “QVQLVESGGGLVQAGGSLRLSCAASGFTFLKYAMGWYRQAPGKERELVARITSGGRTYYADSVKGRFTISRDNAKNTVYLQMNSLKPEDTAVYYCNAVKSYASLYAGFYYWGQGTQVTVSS” was “high polyreactivity”; that for “QVQLVESGGGLVQAGGSLRLSCAASGSTFDDYAMGWYRQAPGKERELVAAISSAGTTYYADSVKGRFTISRDNAKNTVYLQMNSLKPEDTAVYYCNTVLYPVWYVNFSLRYRYDYYWGQGTQVTVSS” was “high polyreactivity”.
As for “QVQLLESGGGLVQAGGSLRLSCAASGRTFQRNAMGWYRQAPGKETELVATITTNGGSTYYADSVKGRFTISRDNAKNTVYLQMNSLKPEDTAVYYCAAPFNPRVRTLRSVRMDYWGQGTQVTVSS”, the “polyreactivity (PSR sort gate)” value is listed as “low polyreactivity”.
Take “QVQLVESGGGLVQAGGSLRLSCAASGRTFTINTMGWYRQAPGKERELVAAITVSGGSTYYADSVKGRFTISRDNAKNTVYLQMNSLKPEDTAVYYCAAQRSYVNLGQTHDYWGQGTQVNVSS”: the “polyreactivity (PSR sort gate)” value was “low polyreactivity”.
Take “QVQLVESGGGLVQAGGSLRLSCAASGSTFRDYAMGWYRQAPGKERELVAAISNSGGRTYYADSVKGRFTISRDNAKNTVYLQMNSLKPEDTAVYYCNAGRQTKWGQGTQVTVSS”: the “polyreactivity (PSR sort gate)” value is “high polyreactivity”.
